Data on one protein can be found in paper PMC9716016.

Substrate in the data set: N
Kind of data set: cells, lysate or membranes. Conditions: labelled compound; (15NH4)2SO4 (60% 15N), 10 min; N-starved 3 d; qko background subtracted; whole-root uptake.

For orientation: Km means the concentration of substrate that gives half-maximal velocity.

B1: ScAMT2;1 (Saccharum hybrid cultivar SP80-3280) (protein)
chain: MAASGGAYAAQLPAVPEWLNKGDNAWQLTAATLVGIQSMPGLVVLYGSIVKKKWAVNSAFMALYAYASSLLVWVLVGFRMAFGERLLPFWGKAGVALSQGYLVRRASLSATAHGDTPRTEPLYPEATLVLFQFEFAAITLVLLAGSVLGRMNIKAWMAFTPLWLLFSYTVGAFSLWGGGFLYHWGVIDYSGGYVIHLSSGVAGFTAAYWVGPRLKSDRERFSPNNILLMIAGGGLLWMGWAGFNGGAPYAANIAASVAVLNTNVSAATSLLTWTCLDVIFFNKPSVIGAVQGMMTGLVCITPGAGLVQTWAAVIMGVFAGSVPWFTMMILHKKSALLMKVDDTLAVFHTHAVAGLLGGVLTGLLATPELLEIESPVPGLRGAFYGGGAQQVGKQLAGAAFVVAWNVAVTSLILFAIGLLVPLRMPDDQLMIGDDAAHGEEAYALWGDGEKFDATRHDLAARVGGGGMMDREGSADQRMSGMGARGVTIQL
Take B1: the Km is 90.17 µM.
